Laboratory results from paper PMC2132865.

Experiments:
[1] = target: Fam (endogenous, MDCKII cells) (dog (endogenous in MDCKII)); assay: co-IP
GST-AF-6 (1130–1612 aa) = assay: pull-down

| Substance | stoichiometry N [1] | Kd (GST-AF-6 (1130–1612 aa)) |
| --- | --- | --- |
| AF-6 (endogenous, MDCKII cells) (natural protein) | 0.1 AF-6 per Fam | – |
| MBP-Fam (1476–1918 aa) (domain or fragment) | – | 810 nM |
